From PMC2807882, “Conservation of DNA-binding specificity and oligomerisation properties within the p53 family”

T1: Dmp53 (Drosophila melanogaster, UniProt Q9N6D8 1-385)
T1 sequence: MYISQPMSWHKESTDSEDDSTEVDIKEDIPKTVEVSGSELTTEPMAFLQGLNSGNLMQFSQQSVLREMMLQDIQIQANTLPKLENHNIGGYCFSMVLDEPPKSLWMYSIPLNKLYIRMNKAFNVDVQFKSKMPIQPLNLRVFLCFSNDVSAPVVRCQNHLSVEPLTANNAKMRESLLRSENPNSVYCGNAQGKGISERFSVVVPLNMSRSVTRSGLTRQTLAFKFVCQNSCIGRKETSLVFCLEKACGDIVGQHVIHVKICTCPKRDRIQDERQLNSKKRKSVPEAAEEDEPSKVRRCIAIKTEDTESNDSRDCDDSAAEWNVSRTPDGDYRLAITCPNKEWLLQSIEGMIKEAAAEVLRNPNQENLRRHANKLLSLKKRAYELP

T2: Drp53 (Danio rerio, UniProt P79734 1-373)
T2 sequence: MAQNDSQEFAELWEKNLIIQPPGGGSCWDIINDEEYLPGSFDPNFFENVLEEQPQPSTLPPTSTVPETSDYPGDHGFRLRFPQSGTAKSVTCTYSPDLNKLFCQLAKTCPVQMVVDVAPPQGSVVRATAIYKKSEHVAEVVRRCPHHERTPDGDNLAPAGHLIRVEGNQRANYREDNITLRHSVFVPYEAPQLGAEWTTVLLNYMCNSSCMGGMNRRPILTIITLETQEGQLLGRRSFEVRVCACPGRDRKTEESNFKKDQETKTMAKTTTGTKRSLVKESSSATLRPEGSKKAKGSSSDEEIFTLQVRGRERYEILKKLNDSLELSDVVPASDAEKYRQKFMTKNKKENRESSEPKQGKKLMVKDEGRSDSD

T3: ΔNp63α (Homo sapiens, UniProt Q9H3D4-2 1-586)
T3 sequence: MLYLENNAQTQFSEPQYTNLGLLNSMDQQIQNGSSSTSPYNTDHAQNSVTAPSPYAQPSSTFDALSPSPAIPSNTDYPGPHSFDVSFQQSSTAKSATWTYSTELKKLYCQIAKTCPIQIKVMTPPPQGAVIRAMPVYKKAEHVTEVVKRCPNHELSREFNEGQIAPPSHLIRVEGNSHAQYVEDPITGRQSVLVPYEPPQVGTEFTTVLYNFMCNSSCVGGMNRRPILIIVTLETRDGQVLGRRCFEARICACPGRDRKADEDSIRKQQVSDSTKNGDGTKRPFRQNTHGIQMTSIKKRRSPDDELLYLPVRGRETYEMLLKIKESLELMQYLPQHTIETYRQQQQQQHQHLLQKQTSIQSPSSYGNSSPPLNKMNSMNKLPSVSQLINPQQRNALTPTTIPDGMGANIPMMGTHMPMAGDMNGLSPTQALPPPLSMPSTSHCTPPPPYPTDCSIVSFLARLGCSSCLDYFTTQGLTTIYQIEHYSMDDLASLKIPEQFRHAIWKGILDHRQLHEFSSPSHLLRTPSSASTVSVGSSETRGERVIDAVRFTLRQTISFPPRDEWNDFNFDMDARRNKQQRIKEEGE

T4: p73CT (Homo sapiens, UniProt O15350 104-383)
T4 sequence: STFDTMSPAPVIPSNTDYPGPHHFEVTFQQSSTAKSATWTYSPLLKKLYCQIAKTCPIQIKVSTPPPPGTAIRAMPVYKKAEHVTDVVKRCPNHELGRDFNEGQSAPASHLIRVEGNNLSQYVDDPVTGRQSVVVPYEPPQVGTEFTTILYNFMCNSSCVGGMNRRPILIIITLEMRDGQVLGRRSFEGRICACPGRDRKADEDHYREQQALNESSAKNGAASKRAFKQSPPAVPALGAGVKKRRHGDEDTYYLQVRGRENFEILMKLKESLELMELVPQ

T5: ΔNp63γ (Homo sapiens, UniProt Q9H3D4-6 1-393)
T5 sequence: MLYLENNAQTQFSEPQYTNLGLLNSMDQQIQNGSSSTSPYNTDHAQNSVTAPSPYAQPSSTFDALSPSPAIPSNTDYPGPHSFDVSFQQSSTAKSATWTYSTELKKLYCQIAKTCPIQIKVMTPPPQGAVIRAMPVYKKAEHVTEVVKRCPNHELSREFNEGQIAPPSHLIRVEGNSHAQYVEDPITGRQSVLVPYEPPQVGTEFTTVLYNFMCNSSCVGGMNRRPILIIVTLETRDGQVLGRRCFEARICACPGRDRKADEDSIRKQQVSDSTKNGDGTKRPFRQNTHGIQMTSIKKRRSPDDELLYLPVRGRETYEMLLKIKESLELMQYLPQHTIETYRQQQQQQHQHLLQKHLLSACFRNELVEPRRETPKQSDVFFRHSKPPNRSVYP

B1: Ref_Alexa488 (dsDNA)
DNA 1: GGACATGTCCGGACATGTCC
DNA 2: GGACATGTCCGGACATGTCC
B2: Ref competitor (dsDNA)
DNA 1: CGCGGACATGTCCGGACATGTCCCGC
DNA 2: GCGGGACATGTCCGGACATGTCCGCG

How the values were obtained:
Hsp53 = Hsp53 (Homo sapiens, UniProt P04637 1-393); assay: fluorescence anisotropy direct titration; 25 mM sodium phosphate (purification buffer pH 7.2), 225 mM NaCl, 10% v/v glycerol, 5 mM DTT, 0.2 mg/mL BSA, 22 C; settings: protein: recombinant; tags: N-terminal 6xHis-lipoyl-TEV tag, cleaved; chain copies: 4; label: 5'-Alexa488
Hsp53, sequence (P04637 whole entry): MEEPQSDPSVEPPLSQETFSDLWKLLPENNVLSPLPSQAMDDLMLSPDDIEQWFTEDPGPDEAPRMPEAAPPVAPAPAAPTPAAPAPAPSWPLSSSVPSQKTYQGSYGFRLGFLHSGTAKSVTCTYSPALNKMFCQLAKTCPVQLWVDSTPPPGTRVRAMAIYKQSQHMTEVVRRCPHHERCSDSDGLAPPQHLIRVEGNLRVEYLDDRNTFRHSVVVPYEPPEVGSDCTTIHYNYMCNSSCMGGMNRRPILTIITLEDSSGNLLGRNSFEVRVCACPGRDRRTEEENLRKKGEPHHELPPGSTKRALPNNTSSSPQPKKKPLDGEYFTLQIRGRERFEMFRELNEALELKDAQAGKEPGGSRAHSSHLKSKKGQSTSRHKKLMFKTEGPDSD

Dmp53 = target: T1, Dmp53; assay: as above; settings: protein: recombinant; tags: N-terminal 6xHis-lipoyl-TEV tag, cleaved; chain copies: 4; label: 5'-Alexa488
Drp53 [1] = target: T2, Drp53; assay: as above; settings: protein: recombinant; tags: N-terminal 6xHis-lipoyl-TEV tag, cleaved; chain copies: 4; label: 5'-Alexa488
ΔNp63α = target: T3, ΔNp63α; assay: as above; settings: protein: recombinant; tags: N-terminal 6xHis-lipoyl-TEV tag, cleaved; chain copies: 4; label: 5'-Alexa488
p73CT = target: T4, p73CT; assay: as above; settings: protein: recombinant; tags: N-terminal 6xHis-lipoyl-TEV tag, cleaved; chain copies: 4; label: 5'-Alexa488
ΔNp63γ = target: T5, ΔNp63γ; assay: fluorescence anisotropy competition titration; 25 mM sodium phosphate (purification buffer pH 7.2), 225 mM NaCl, 10% v/v glycerol, 5 mM DTT, 0.2 mg/mL BSA, 22 C; settings: protein: recombinant; tags: N-terminal 6xHis-lipoyl-TEV tag, cleaved; chain copies: 4
Drp53 [2] = target: T2, Drp53; assay: as above; settings: protein: recombinant; tags: N-terminal 6xHis-lipoyl-TEV tag, cleaved; chain copies: 4
Xlp53 = Xlp53 (Xenopus laevis, UniProt Q7T1D0 1-362); assay: as above; settings: protein: recombinant; tags: N-terminal 6xHis-lipoyl-TEV tag, cleaved; chain copies: 4
Xlp53, sequence (Q7T1D0 entry or part of it): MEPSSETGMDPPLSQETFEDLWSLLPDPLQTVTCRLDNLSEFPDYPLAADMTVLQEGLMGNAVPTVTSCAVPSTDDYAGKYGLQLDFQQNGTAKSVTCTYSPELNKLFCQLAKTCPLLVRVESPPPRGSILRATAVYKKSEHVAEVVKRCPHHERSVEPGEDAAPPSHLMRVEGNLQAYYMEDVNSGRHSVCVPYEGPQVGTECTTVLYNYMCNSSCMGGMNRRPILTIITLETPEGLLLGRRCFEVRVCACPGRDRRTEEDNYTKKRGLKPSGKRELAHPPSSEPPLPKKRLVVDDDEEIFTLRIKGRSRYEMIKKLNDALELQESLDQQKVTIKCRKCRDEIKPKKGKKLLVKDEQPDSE

Binder | Kd (Hsp53) [µM] | Kd (Dmp53) [µM] | Kd (Drp53 [1]) [µM] | Kd (ΔNp63α) [µM] | Kd (p73CT) [µM] | Kd (ΔNp63γ) [µM] | Kd (Drp53 [2]) [µM] | Kd (Xlp53) [µM]
B1 | 0.0562 | 0.0525 | 0.0631 | 0.0759 | 0.24 | – | – | –
B2 | – | – | – | – | – | 0.0331 | 0.038 | 0.0832
